Consider 1 molecule from patent publication US20100292443A1 (published 2010).

The target of this experiment is T1, protein A (immobilized on a protein A column) (UniProt P38507 37-327).
T1 construct: Other paragraphs mention recombinant protein A on agarose and ProSep-vA-Ultra resin; also called protein A resin
In words: protein A column equilibrated with 20 mM TRIS pH 8, after papain digestion. The protocol: Purified, intact anti-S1P IgG was digested with activated papain (incubated 10 mg/ml papain in 5.5 mM cysteine-HCL, 1 mM EDTA, 70 μM 2-mercaptoethanol for 0.5 hours at 37° C.) in digestion buffer (100:1 LT1009:papain in 50 mM sodium phosphate pH 7.2, 2 mM EDTA). After 2 hours at 37° C., the protease reaction was quenched with 50 mM iodoacetamide, dialyzed against 20 mM TRIS pH 9, and loaded onto 2×5 ml HiTrap Q columns. The bound protein was eluted with a linear gradient of 20 mM TRIS pH 8, 0.5 M NaCl and collected in 4 ml fractions. The fractions containing the anti-S1P Fab fragment were pooled and loaded onto a protein A column equilibrated with 20 mM TRIS pH 8. The intact antibody and the Fc fragment bound to the resin, while the Fab fragment was present in the flow through fraction. The Fab fragment was concentrated using a centricon-YM30 centrifugal concentrator (Millipore, Cat No 4209), dialyzed against 25 mM HEPES pH 7, and stored at 4° C.

B1: LT1009 Fab fragment (anti-S1P Fab fragment, from papain digestion) (Fab)
heavy: EVQLVQSGAEVKKPGESLKISCQSFGYIFIDHTIHWMRQMPGQGLEWMGAISPRHDITKYNEMFRGQVTISADKSSSTAYLQWSSLKASDTAMYFCARGGFYGSTIWFDFWGQGTMVTVSSASTKGPSVFPLAPSSKSTSGGTAALGCLVKDYFPEPVTVSWNSGALTSGVHTFPAVLQSSGLYSLSSVVTVPSSSLGTQTYICNVNHKPSNTKVDKRVEPKSCDKTH
light: ETTVTQSPSFLSASVGDRVTITCITTTDIDDDMNWFQQEPGKAPKLLISEGNILRPGVPSRFSSSGYGTDFTLTISKLQPEDFATYYCLQSDNLPFTFGQGTKLEIKRTVAAPSVFIFPPSDEQLKSGTASVVCLLNNFYPREAKVQWKVDNALQSGNSQESVTEQDSKDSTYSLSSTLTLSKADYEKHKVYACEVTHQGLSSPVTKSFNRGEC
B1: the binding result was “no binding”.
